This is an account of results in patent US9101618B2, “Method for treating and/or preventing neurodegenerative disease by adiponectin receptor agonist” (TOKYO METROPOLITAN INSTITUTE OF MEDICAL SCIENCE, priority 2011, dated 2015).

This assay has as its system B103 neuroblastoma cells (α (alpha)S). In words: Adiponectin addition (1): α-synuclein aggregation (western blotting of fractions). Type of assay: cell-based, rat. To be noted: 1 μg/mL, 24 hours, serum-free medium. How it is done:
The B103 neuroblastoma cells (α (alpha)S) and the B103 neuroblastoma cells (vector) were prepared and cultured in accordance with the procedures described in example 3. The B103 neuroblastoma cells (α (alpha)S) and the B103 neuroblastoma cells (vector) were inoculated on the 6-well plate and cultured to a state of about 80-90% confluence. After washing with PBS, the aforementioned cells were further cultured for 24 hours in a test medium prepared by adding recombinant human adiponectin (1 μg/mL, trimer, PROSPEC) to a serum-free medium. As a control, there was used a control medium prepared by adding thereto PBS instead of recombinant human adiponectin. After culturing, there were prepared the TBS soluble fraction, the SDS soluble fraction and the formic acid soluble fraction in accordance with the procedures described in example 1. Further, western blotting was performed in accordance with the procedures described in example 1. In order to evaluate α (alpha)-synuclein aggregation, an anti-α (alpha)-synuclein mouse monoclonal antibody (syn-1, Nippon Becton Dickinson Company, Ltd) was used as a primary antibody when performing western blotting, the anti-α (alpha)-synuclein mouse monoclonal antibody being diluted appropriately before use. […]
(In general: A western blot detects proteins with antibodies after separation by electrophoresis.)

B1: adiponectin: recombinant human adiponectin (trimer, PROSPEC) added to serum-free medium at 1 μg/mL (protein, UniProt Q15848 19-244, looked up)
Adiponectin: ETTTQGPGVLLPLPKGACTGWMAGIPGHPGHNGAPGRDGRDGTPGEKGEKGDPGLIGPKGDIGETGVPGAEGPRGFPGIQGRKGEPGEGAYVYRSAFSVGLETYVTIPNMPIRFTKIFYNQQNHYDGSTGKFHCNIPGLYYFAYHITVYMKDVKVSLFKKDKAMLFTYDQYQENNVDQASGSVLLHLEVGDQVWLQVYGEGERNGLYADNDNDSTFTGFLLYHDTN
Consider B1, for which the “α-synuclein in culture supernatant” value is “decreased” and the “α-synuclein in the formic acid soluble fraction” value is on record as “decreased”.
